First the molecules themselves.
B1: Regulator of G-protein signaling 4 (Rattus norvegicus (Rat)), P49799 (parent)
chain: MCKGLAGLPASCLRSAKDMKHRLGFLLQKSDSCEHSSSHSKKDKVVTCQRVSQEEVKKWAESLENLINHECGLAAFKAFLKSEYSEENIDFWISCEEYKKIKSPSKLSPKAKKIYNEFISVQATKEVNLDSCTREETSRNMLEPTITCFDEAQKKIFNLMEKDSYRRFLKSRFYLDLTNPSSCGAEKQKGAKSSADCTSLVPQCA
partner: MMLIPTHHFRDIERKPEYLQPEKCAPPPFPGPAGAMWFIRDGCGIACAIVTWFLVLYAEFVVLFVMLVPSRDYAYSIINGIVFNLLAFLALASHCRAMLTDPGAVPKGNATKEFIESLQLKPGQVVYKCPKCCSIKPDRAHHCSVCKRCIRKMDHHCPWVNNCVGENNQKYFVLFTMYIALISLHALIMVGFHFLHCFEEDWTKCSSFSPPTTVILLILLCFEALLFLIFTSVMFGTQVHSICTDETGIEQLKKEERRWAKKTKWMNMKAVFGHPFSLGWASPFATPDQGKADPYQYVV

Variants of B1 are the subject of this experiment. The note with it: with zdhc3_mouse Zdhhc3, Q8R173.
For C2S, the “effect of a mutation on the interaction” value is reported as “disrupting interaction”.

The values above are taken from IntAct's records for PubMed 21035448.
